± gives the uncertainty stated by the source.

Data on 25 sequences can be found in the supplement of paper PMC9732359.

A short description of this data set: protein stability index of a GFP-peptide fusion (yeast GPS) (PSI 1-4); higher = more stable; sorted into four equal gates, so the index is relative within each strain. The gist of the method: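 Tiled 17-residue peptides from yeast proteins were fused downstream of GFP on a plasmid that also expresses Cherry, and the pooled library was carried in yeast. Mid-log cultures grown in leucine-free medium were sorted into four equal gates by GFP/Cherry fluorescence ratio. Plasmids from each gate were PCR-amplified and Illumina-sequenced, and reads were assigned to strains by barcodes. Each peptide's protein stability index is the sum, over gates, of the gate's read frequency multiplied by its gate number.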

With AYILAAQKTSFEYEGVQ [RPN1], the protein stability index runs as follows: (doa10∆) 2.39 ± 0.072; (pdr5∆) 2.35 ± 0.079; (san1∆) 2.2 ± 0.15; (ubr1∆) 2.23 ± 0.08.

In the case of TNLKMKRKWSYVLYAKI [RRP43], the protein stability index runs as follows: (doa10∆) 1.71 ± 0.058; (pdr5∆) 2.37 ± 0.042; (san1∆) 1.75 ± 0.16; (ubr1∆) 2.09 ± 0.15.

As for EEKVIERAAQKLRLDQL [ISW2], the protein stability index (doa10∆) is 2.81 ± 0.15, the protein stability index (pdr5∆) came out at 2.89 ± 0.14, the protein stability index (san1∆) amounted to 2.87 ± 0.12 and the protein stability index (ubr1∆) came to 2.68 ± 0.11.

For the sequence NNTLSRYADAGNIDTKN [RRP43], the protein stability index by setting is: (doa10∆) 3.35 ± 0.064; (pdr5∆) 3.21 ± 0.058; (san1∆) 3.28 ± 0.041; (ubr1∆) 3.5 ± 0.054.

In the case of KAKSHFTNIISRNKALE [YJL039C/NUP192], the protein stability index was determined as 2.66 ± 0.079 (doa10∆), 2.01 ± 0.053 (pdr5∆), 2.39 ± 0.13 (san1∆) and 2.68 ± 0.075 (ubr1∆).

Turning to RVTGGMKVKADRDESSP [RPS14A], the protein stability index amounted to 3.31 ± 0.077 (doa10∆), 3.24 ± 0.063 (pdr5∆), 3.28 ± 0.038 (san1∆) and 3.26 ± 0.05 (ubr1∆).

Take VQLLSKSHNAHVRCGTA [RPN2]: the protein stability index by setting is: (doa10∆) 1.44 ± 0.071; (pdr5∆) 1.5 ± 0.042; (san1∆) 1.57 ± 0.08; (ubr1∆) 1.72 ± 0.048.

On to KVISEILTKEVQGSTLA [RPS1A], for which the protein stability index (doa10∆) is 2.29 ± 0.026, the protein stability index (pdr5∆) is 2.336 ± 0.023, the protein stability index (san1∆) came to 2.29 ± 0.03 and the protein stability index (ubr1∆) was determined as 2.194 ± 0.018.

For the sequence ASGFGFGGSQPNSGTAT [YGR119C/NUP57], the protein stability index was 3.19 ± 0.14 (doa10∆), 2.74 ± 0.086 (pdr5∆), 2.4 ± 0.11 (san1∆) and 2.87 ± 0.094 (ubr1∆).

As for WIKNEQERQRQIQKNGP [PRP8], the protein stability index was 2.75 ± 0.092 (doa10∆), 3.09 ± 0.11 (pdr5∆), 2.85 ± 0.14 (san1∆) and 2.84 ± 0.094 (ubr1∆).

As for EFNSIDRVIFRVPIRSE [PRP8], the protein stability index stood at 3.32 ± 0.089 (doa10∆), 3.33 ± 0.097 (pdr5∆), 3.21 ± 0.13 (san1∆) and 3.11 ± 0.046 (ubr1∆).

As to TGNNNNIATQQNMQQSL [GAL11], the protein stability index turned out to be 2.06 ± 0.048 (doa10∆), 2.49 ± 0.077 (pdr5∆), 2.55 ± 0.11 (san1∆) and 2.59 ± 0.052 (ubr1∆).

RVSKDKKSGSLTFNSKN [FAS2]: the protein stability index (doa10∆) came to 3.34 ± 0.084, the protein stability index (pdr5∆) came out at 3.26 ± 0.072, the protein stability index (san1∆) was 3.23 ± 0.092 and the protein stability index (ubr1∆) was 3.18 ± 0.074.

Regarding CYEKVLESINEGNQIIV [BRR2], the protein stability index was 3.09 ± 0.11 (doa10∆), 2.59 ± 0.11 (pdr5∆), 2.05 ± 0.093 (san1∆) and 2.34 ± 0.1 (ubr1∆).

For YKLGKVKKVQLGKKGVP [RPS4A], the protein stability index runs as follows: (doa10∆) 2.85 ± 0.14; (pdr5∆) 2.98 ± 0.16; (san1∆) 3.19 ± 0.049; (ubr1∆) 2.94 ± 0.11.

Consider TYEAIEITDAYCFAKND [YMR129W/POM152], for which the protein stability index worked out at 2.93 ± 0.061 (doa10∆), 2.66 ± 0.053 (pdr5∆), 2.7 ± 0.05 (san1∆) and 3.01 ± 0.045 (ubr1∆).

As for NWRSFNAKIIDAEVAQF [SRP68], the protein stability index came out at 2.53 ± 0.071 (doa10∆), 2.56 ± 0.048 (pdr5∆), 2.01 ± 0.073 (san1∆) and 2.43 ± 0.098 (ubr1∆).

For YSLASVTLKGAKALESL [POP1], the protein stability index (doa10∆) is 2.78 ± 0.049, the protein stability index (pdr5∆) is 2.83 ± 0.052, the protein stability index (san1∆) worked out at 2.83 ± 0.045 and the protein stability index (ubr1∆) was 2.77 ± 0.052.

In turn, TSLQGTYEAIEITDAYC [YMR129W/POM152] had a protein stability index (doa10∆) of 2.63 ± 0.053, a protein stability index (pdr5∆) of 2.86 ± 0.059, a protein stability index (san1∆) of 2.74 ± 0.049 and a protein stability index (ubr1∆) of 2.52 ± 0.038.

On to THIAESAKEIAKASGCD [MCD1], for which the protein stability index reads like this: (doa10∆) 3.16 ± 0.14; (pdr5∆) 3.4 ± 0.19; (san1∆) 3.15 ± 0.049; (ubr1∆) 3.34 ± 0.075.

ETQPGCNEEQTLEAKIG [RPO31]: the protein stability index is, setting by setting: (doa10∆) 3.21 ± 0.073; (pdr5∆) 3.33 ± 0.069; (san1∆) 2.96 ± 0.057; (ubr1∆) 3.24 ± 0.053.

Turning to FYSTNSQYFKFKNDFNS [RPN9], the protein stability index reads like this: (doa10∆) 2.1 ± 0.067; (pdr5∆) 2.11 ± 0.054; (san1∆) 2.1 ± 0.094; (ubr1∆) 2.5 ± 0.053.

On to NDTSSGTNAMLPSPESL [SNF5], for which the protein stability index stood at 2.73 ± 0.042 (doa10∆), 2.84 ± 0.049 (pdr5∆), 2.74 ± 0.035 (san1∆) and 2.8 ± 0.042 (ubr1∆).

With INHTILGKLQDVFNLLP [RPN8], the protein stability index reads like this: (doa10∆) 3.16 ± 0.066; (pdr5∆) 3.17 ± 0.081; (san1∆) 2.84 ± 0.048; (ubr1∆) 2.96 ± 0.046.

Sequence SKNRIIVEADEKKGIVQ [RET1] registered a protein stability index (doa10∆) of 1.21 ± 0.14, a protein stability index (pdr5∆) of 1.47 ± 0.061 and a protein stability index (ubr1∆) of 1.59 ± 0.077.
